In assay [1] the target is T1, recombinant soluble human TREM2 protein (human TREM2 ECD-FlagHis) (human, UniProt Q9NZC2 19-174).
T1 sequence: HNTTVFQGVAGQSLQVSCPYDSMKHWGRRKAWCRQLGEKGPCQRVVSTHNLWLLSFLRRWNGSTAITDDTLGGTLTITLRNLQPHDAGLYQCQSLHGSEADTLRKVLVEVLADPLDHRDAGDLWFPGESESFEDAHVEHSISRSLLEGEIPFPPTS
Put plainly: Octet BLI binning; competitor: load Ab 13E7. Put shortly: (§1)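 Anti-human Fc capture of load Ab (5 μg/mL, 2 min); block 100 μg/mL irrelevant hIgG2, 5 min; sandwich Ab 5 μg/mL, 5 min. Buffer Tris pH 7.6/Triton X-100/NaCl/CaCl₂/BSA, 25° C. Binding of sandwich Ab = different epitope bin.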

Assay [2] deals with T1, recombinant soluble human TREM2 protein …. Put plainly: Octet BLI binning; competitor: load Ab 16B8. Put shortly:
as §1

Assay [3] has the same target. The assay is described as follows: Octet BLI binning; competitor: load Ab 24F4. The method in brief: as §1
The target is the same in assay [4]. The assay is described as follows: Octet BLI binning; competitor: load Ab 26C10. Put shortly:
as §1

Assay [5] shares this target. The assay is described as follows: Octet BLI, antibody on anti-human Fc sensor, 25 C. Here is the method: (§2) To quantitate the binding affinity of agonist antibodies for human TREM2, association and dissociation rate constants as well as the equilibrium dissociation constant were determined using anti-human Fc (Kinetic) sensors on an Octet® HTX instrument (Pall ForteBio). Agonist anti-TREM2 antibodies were made up in DMEM null media, 250 μL at 10 μg/mL. The, 250 uL of assay buffer (10 mM Tris (pH 7.6), 0.1% Triton X-100, 150 mM NaCl, 1mM CaCl₂, and 1 mg/mL BSA) was added to the antibody solutions to a final volume of 500 μL and final antibody concentration of 5 μg/mL. The anti-human Fc sensor was pre-incubated in 200 μL of the assay buffer for a minimum of 10 minutes. The sensor was then regenerated for 5 seconds in 10 mM glycine pH 1.5. Test agonist anti-TREM2 antibodies were loaded onto the sensor for 2 minutes, and baseline measurements were taken for 2 minutes. […] The recombinant TREM2 proteins were allowed to associate with the antibody-loaded sensor for 10 minutes, and then dissociation was measured for 10 minutes. The assay was conducted at 25° C. Experimental kinetic results were globally fit to a 1:1 binding model in order to determine the association and dissociation rate constants as well as the equilibrium dissociation constant.

Assay [6] has as its target T2, recombinant soluble cynomolgus TREM2 protein (cynomolgus TREM2 extracellular domain coupled to a Flag/His tag) (cynomolgus, UniProt A0A2K5UY34 49-204).
T2 construct: extracellular domain; also called Cyno TREM2
T2 sequence: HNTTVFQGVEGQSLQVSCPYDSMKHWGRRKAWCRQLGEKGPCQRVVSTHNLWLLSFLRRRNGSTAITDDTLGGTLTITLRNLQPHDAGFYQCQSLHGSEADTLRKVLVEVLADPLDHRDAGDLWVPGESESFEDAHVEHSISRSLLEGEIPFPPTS
The assay is described as follows: Octet BLI, antibody on anti-human Fc sensor, 25 C. Here is the method: as §2

In assay [7] the target is T1, recombinant soluble human TREM2 protein …. Put plainly: Octet BLI binning; competitor: load Ab 4C5. The protocol:
(§3) Each of sixteen different anti-TREM2 antibodies produced from hybridomas were quantitated and loaded onto one of the anti-human Fc sensors at 5 μg/mL for 2 minutes (“Load Antibody”). The sensor was then blocked with 100 μg/mL of an irrelevant human IgG2 antibody for 5 minutes. […] Next, each of the sixteen different anti-TREM2 antibodies (“Sandwich Antibody”) was added to the sensor at 5 μg/mL and allowed to bind for 5 minutes. All assay buffers contained 10 mM Tris (pH 7.6), 0.1% Triton X-100, 150 mM NaCl, 1 mM CaCl₂, and 1 mg/mL BSA. The assay was conducted at 25° C. Experimental kinetic results were fit to a 1:1 binding model.
(§4) However, if addition of the sandwich antibody produces a binding event, then the sandwich antibody binds to a different epitope on human TREM2 than the load antibody and the two antibodies are categorized into different epitope bins.

Assay [8] shares this target. The assay is described as follows: Octet BLI binning; competitor: load Ab 4G10. The protocol: as §3, §4

B1: 6E7 (antibody, human IgG2, V domains shown)
VH: EVQLVQSGAEVKKPGESLKISCKGSGYSFTSYWIAWVRQMPGKGLEWMGIIYPGDSDTRYSPSFQGQVTISADKSISTAYLQWSSLKASDTAMYFCARQRTFYYDSSDYFDYWGQGTLVTVSS
VL: DIQMTQSPSSVSASVGDRVTITCRASQGISSWLAWYQQKPGKAPKLLIYAASSLQNGVPSRFSGSGSGTDFTLTISSLQPEDFATYFCQQADSFPRTFGQGTKLEIK
notes: human IgG2 from hybridoma
For B1, the sandwich binding signal worked out at 0.051 in assay [1], 0.429 in assay [2], 0.054 in assay [3] and 0.472 in assay [4]. For the same molecule, the results for the dissociation constant Kd in assay [5] and in assay [6] were 2.6 nM and 2.5 nM, respectively.

B2: 5E3 (antibody, human IgG2, V domains shown)
VH: QVQLVQSGAEVKKPGASVKVSCKASGYTFTGYYIHWVRQAPGLGLEWMGWINPYSGGTTSAQKFQGRVTMTRDTSISSAYMELSRLRSDDTAVYYCARDGGYLALYGTDVWGQGTTVTVSS
VL: DIQMTQSPSSLSASVGDRVTITCRASQGISNYLAWFQQKPGKAPKSLIYAASSLQSGVPSKFSGSGSGTDFTLTISSLQPEDFATYYCQQYSTYPFTFGPGTKVDIK
notes: human IgG2 from hybridoma
Take B2: the sandwich binding signal is 0.259 in assay [1], -0.047 in assay [2], 0.434 in assay [3] and -0.073 in assay [4]. The Kd in assay [5] turned out to be 2.1 nM; in assay [6] it was 1.6 nM.

B3: 10E3 (antibody, human IgG2, V domains shown)
VH: EVQLVQSGAEVKKPGESLMISCKGSGYSFTNYWIGWVRQMPGKGLEWMGIIYPGDSDTRYSPSFQGQVTISADKSISTAYLQWSSLKASDTAMYFCARRRQGIWGDALDIWGQGTLVTVSS
VL: EIVMTQSPATLSVSPGERATLSCRASQSVSSNLAWFQQKPGQAPRLLIYGASTRATGIPARFSVSGSGTEFTLTISSLQSEDFAFYYCLQDNNWPPTFGPGTKVDIK
notes: human IgG2 from hybridoma
In the case of B3, the sandwich binding signal in assay [7] is 0; in assay [1], -0.019; in assay [2] it was 0.33; in assay [3], -0.002; in assay [8], -0.008; in assay [4], 0.348. Besides, the figures for the equilibrium dissociation constant (Kd) in assay [5] and in assay [6] were 10.3 nM and 11.3 nM, respectively.

B4: 13E7 (antibody, human IgG2, V domains shown)
VH: EVQLVQSGAEVKKPGESLMISCKGSGYSFTSYWIGWVRQMPGKGLEWMGIIYPGDSDTRYSPSFQGQVTISADKSISTAYLQWSSLKASDTAMYFCARRRQGIWGDALDFWGQGTLVTVSS
VL: EIVMTQSPATLSVSPGERATLSCRASQSVSSNLAWFQQKPGQAPRLLIYGASTRATGIPARFSVSGSGTEFTLTISSLQSEDFAVYYCLQDNNWPPTFGPGTKVDIK
notes: human IgG2 from hybridoma
In the case of B4, the sandwich binding signal in assay [1] is -0.017; in assay [2] it was 0.329; in assay [3], -0.002; in assay [4], 0.369. In addition, the Kd in assay [5] was found to be 11 nM; in assay [6], 8.71 nM.

Values taken from US20220204611A1 (Amgen, published 2022).
